The results in this text go back to article doi:10.1101/2024.12.16.628704.

The target in test [1] is sialylated IgG1 V11 (G237D, P238D, H268D, P271G, A330R) Fc (human). Kind of test: SPR. For orientation: SPR reads the build-up and loss of mass on a sensor chip optically.
Test [2] deals with sialylated IgG1 GA (G236A) Fc (human). The experiment in a line: SPR.

“FcγRIA (CD64) (from UniProt P12314 16-374) (receptor)”: the fold weaker affinity against WT sFc in test [1] was 193 fold. Consider “FcγRIIA (CD32a), variant not named in the sentence (from UniProt P12318 34-317) (receptor)”, for which the fold change in affinity against WT sFc in test [2] was determined as 10 fold. Substance “FcγRIIB (CD32b), as used in SPR with Fc proteins (from UniProt P31994 43-310) (receptor)” had a fold change in affinity against WT sFc in test [1] of 37 fold.
